Measured values taken from publication PMC5585873.

What was measured:
[1] = tested on: CCCCCCOS(=O)(=O)O; experiment: purified protein; conditions: 10 mM tris-HCl, pH 7.4, 25 °C, 0.16 μM enzyme
[2] = substrate: CCCCCCOS(=O)(=O)O; experiment: LC-MS of substrate depletion, hyperbolic fit; format: biochemical, Saccharomyces cerevisiae; conditions: 10 mM tris-HCl, pH 7.4, 25 °C, 1.0 μM enzyme

## SdsA1 (Pseudomonas aeruginosa PAO1)
[1]
  Km: 110 ± 17 µM
  kcat: 1.07 ± 0.45 s⁻¹

B1: Bds1 (Saccharomyces cerevisiae S288C) (protein)
chain: MIGAFKRNRGSSQSFAKECQPSTLKANLEVAKELPFSDRRDFEDATQGYIGSLSDEQIIGPDGGVVWCMKSYGFLEPETPANTVNPSLWRQAQLNAIHGLFKITDNVYQVRGLDISNMTIIEGNTSLIIIDTLFTTETAQESLKLYYRHRPQKPVRTVIYTHSHSDHYGGVKGIVKEADVKSGEVQIIAPVGFMESVVAENILAGNAMHRRSQYQFGMLLSPSVKGHVDCGIGKAASHGTVTLIAPTIIIEEPVEERTIDGVDFVFQLAPGSEAPSEMLIYMPQQRVLNMAEDVTHHMHNLYALRGVEVRDGNQWAKYIDAARVAFGSKTDVLIAQHHWPTTGQMRINELLKKQRDMYKFIHDQTLRLLNQGYTSRDIAETLRMPSSLEQEWSTRGYYGTLSHNVKAVYQKYLGWYDANPANLNPLPPVAYAKKAVEYMGGADAVLARAYKDFQKGEFRWVASVVNQLVFADPNNHQARELCADALEQLGYQAEASTWRNAYLVGAMELRQGVPKRRSTGKRNNIAVLNNEMFFDFLAVRLNATKAEGKIIVSNWCFINSNERFVITLENCALTYIQGWQTDADATITLKRTTFEALLANEITMVDFLRSKEVEIEGNRLRIEELLKLFDDFDQSFPVVEPMGGST
[2]
  Km: 300 ± 115 µM
  kcat: 0.0067 ± 0.0017 s⁻¹
